These are literature values, as cited in publication PMC12026706.

pKd: −log10 of the molar value.

Common to all, as to test: BIAcore SPR
Data set [1] addresses IL-6R (Homo sapiens) (UniProt P08887).
The target of data set [2] is MD2 (Homo sapiens) (UniProt Q9Y6Y9).
For data set [3], the target named is TLR4 (Homo sapiens) (UniProt O00206).
Data set [4] deals with TLR4/MD2 complex (Homo sapiens) (UniProt O00206).
The target in data set [5] is TREM-1 (Homo sapiens) (UniProt Q9NP99).
TREM-1 (Homo sapiens), sequence (Q9NP99 21-234): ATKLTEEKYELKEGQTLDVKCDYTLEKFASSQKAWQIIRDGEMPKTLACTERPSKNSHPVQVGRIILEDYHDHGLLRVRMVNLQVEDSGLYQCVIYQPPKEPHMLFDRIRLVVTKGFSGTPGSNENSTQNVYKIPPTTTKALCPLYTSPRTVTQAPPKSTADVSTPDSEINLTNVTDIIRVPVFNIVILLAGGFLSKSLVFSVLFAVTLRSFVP

eCIRP, sequence (Q14011 whole entry): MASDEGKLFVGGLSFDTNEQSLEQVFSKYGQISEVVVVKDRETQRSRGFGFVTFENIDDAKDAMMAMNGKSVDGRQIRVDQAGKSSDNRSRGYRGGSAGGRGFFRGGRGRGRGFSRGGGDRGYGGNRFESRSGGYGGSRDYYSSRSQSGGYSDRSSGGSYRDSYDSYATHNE
TLR4 (Homo sapiens), sequence (O00206 24-839): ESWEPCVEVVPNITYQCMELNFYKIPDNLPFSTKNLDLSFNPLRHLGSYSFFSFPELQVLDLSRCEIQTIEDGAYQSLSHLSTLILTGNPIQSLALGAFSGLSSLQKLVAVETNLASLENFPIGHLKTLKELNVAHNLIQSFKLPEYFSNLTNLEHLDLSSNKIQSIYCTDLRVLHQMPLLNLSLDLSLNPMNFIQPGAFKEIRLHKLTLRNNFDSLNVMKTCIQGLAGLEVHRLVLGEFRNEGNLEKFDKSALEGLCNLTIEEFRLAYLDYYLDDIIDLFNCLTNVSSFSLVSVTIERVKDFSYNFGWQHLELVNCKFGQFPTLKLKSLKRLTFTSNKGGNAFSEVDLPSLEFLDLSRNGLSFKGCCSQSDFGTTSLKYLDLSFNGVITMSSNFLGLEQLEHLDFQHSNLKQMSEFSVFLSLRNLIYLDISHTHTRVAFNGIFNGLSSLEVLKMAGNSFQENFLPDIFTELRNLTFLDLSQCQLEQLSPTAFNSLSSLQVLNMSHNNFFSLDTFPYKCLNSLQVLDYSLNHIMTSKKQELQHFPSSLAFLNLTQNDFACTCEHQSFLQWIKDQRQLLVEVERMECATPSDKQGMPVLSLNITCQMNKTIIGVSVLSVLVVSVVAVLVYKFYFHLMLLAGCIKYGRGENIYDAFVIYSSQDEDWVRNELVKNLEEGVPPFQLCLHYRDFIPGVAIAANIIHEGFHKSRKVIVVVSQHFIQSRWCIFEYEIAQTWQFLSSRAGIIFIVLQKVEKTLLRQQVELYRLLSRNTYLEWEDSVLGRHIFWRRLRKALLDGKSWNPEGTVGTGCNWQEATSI
TLR4/MD2 complex (Homo sapiens), sequence (O00206 24-839, chain 1 of 2): as the sequence (O00206 24-839) above
TLR4/MD2 complex (Homo sapiens), sequence (Q9Y6Y9 19-160, chain 2 of 2, further chain): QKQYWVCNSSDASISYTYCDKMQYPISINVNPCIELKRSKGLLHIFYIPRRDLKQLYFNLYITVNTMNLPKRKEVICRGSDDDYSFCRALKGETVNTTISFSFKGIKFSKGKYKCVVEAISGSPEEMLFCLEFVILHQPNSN
MD2 (Homo sapiens), sequence (Q9Y6Y9 19-160): as the sequence (Q9Y6Y9 19-160, chain 2 of 2, further chain) above
IL-6R (Homo sapiens), sequence (P08887 20-355): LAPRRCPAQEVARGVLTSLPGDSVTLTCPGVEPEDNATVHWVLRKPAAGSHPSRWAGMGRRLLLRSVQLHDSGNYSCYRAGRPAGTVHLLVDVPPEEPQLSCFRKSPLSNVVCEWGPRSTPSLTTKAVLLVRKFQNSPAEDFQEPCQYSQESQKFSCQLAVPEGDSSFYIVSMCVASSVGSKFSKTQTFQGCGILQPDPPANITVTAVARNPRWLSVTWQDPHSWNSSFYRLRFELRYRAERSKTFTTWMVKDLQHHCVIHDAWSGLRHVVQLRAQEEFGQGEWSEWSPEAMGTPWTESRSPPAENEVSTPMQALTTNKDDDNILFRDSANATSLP

In the case of eCIRP (from UniProt Q14011), the pKd – broadly, the Kd on a negative log10 scale, so that one unit is a factor of ten – was 7.01 in data set [1]; 6.52 in data set [2]; 6.21 in data set [3]; 6.62 in data set [4]; 6.93 in data set [5].
